Measured values from article PMC8287954.
One block for each binder: values may come before it.

Experiments:
Experiment in all cases: SEC-MALS
[1] = biological target: hsSMNΔ5(T274I)•Gemin2, Q16637;O14893; details: chain shown with the change; 20°C; peak concentration 0.5 µM; parent: 231 (188-454)
[2] = biological target: hsSMNΔ5(H273R)•Gemin2, Q16637;O14893; details: chain shown with the change; 20°C; peak concentration 0.5 µM; parent: 231 (188-454)
[3] = biological target: hsSMNΔ5(G279V)•Gemin2, Q16637;O14893; details: chain shown with the change; 20°C; peak concentration 0.3 µM; parent: 231 (188-454)

- other: SEC-MALS Mw [1]: 198
B1: hsSMNΔ5•Gemin2 complex, O14893 T274I (protein)
chain 1: MAMSSGGSGGGVPEQEDSVLFRRGTGQSDDSDIWDDTALIKAYDKAVASFKHALKNGDICETSGKPKTTPKRKPAKKNKSQKKNTAASLQQWKVGDKCSAIWSEDGCIYPATIASIDFKRETCVVVYTGYGNREEQNLSDLLSPICEVANNIEQNAQENENESQVSTDESENSRSPGNKSDNIKPKSAPWNSFLPPPPPMPGPRLGPGKIIPPPPPICPDSLDDADALGSMLISWYMSGYHIGYYMGFRQNQKEGRCSHSLN
chain 2: MAWVPAESAVEELMPRLLPVEPCDLTEGFDPSVPPRTPQEYLRRVQIEAAQCPDVVVAQIDPKKLKRKQSVNISLSGCQPAPEGYSPTLQWQQQQVAQFSTVRQNVNKHRSHWKSQQLDSNVTMPKSEDEEGWKKFCLGEKLCADGAVGPATNESPGIDYVQIGFPPLLSIVSRMNQATVTSVLEYLSNWFGERDFTPELGRWLYALLACLEKPLLPEAHSLIRQLARRCSEVRLLVDSKDDERVPALNLLICLVSRYFDQRDLADEPS

- other: SEC-MALS Mw [2]: 266
B2: hsSMNΔ5•Gemin2 complex, O14893 H273R (protein)
chain 1: MAMSSGGSGGGVPEQEDSVLFRRGTGQSDDSDIWDDTALIKAYDKAVASFKHALKNGDICETSGKPKTTPKRKPAKKNKSQKKNTAASLQQWKVGDKCSAIWSEDGCIYPATIASIDFKRETCVVVYTGYGNREEQNLSDLLSPICEVANNIEQNAQENENESQVSTDESENSRSPGNKSDNIKPKSAPWNSFLPPPPPMPGPRLGPGKIIPPPPPICPDSLDDADALGSMLISWYMSGYRTGYYMGFRQNQKEGRCSHSLN
chain 2: MAWVPAESAVEELMPRLLPVEPCDLTEGFDPSVPPRTPQEYLRRVQIEAAQCPDVVVAQIDPKKLKRKQSVNISLSGCQPAPEGYSPTLQWQQQQVAQFSTVRQNVNKHRSHWKSQQLDSNVTMPKSEDEEGWKKFCLGEKLCADGAVGPATNESPGIDYVQIGFPPLLSIVSRMNQATVTSVLEYLSNWFGERDFTPELGRWLYALLACLEKPLLPEAHSLIRQLARRCSEVRLLVDSKDDERVPALNLLICLVSRYFDQRDLADEPS

- other: SEC-MALS Mw [3]: 384
B3: hsSMNΔ5•Gemin2 complex, O14893 G279V (protein)
chain 1: MAMSSGGSGGGVPEQEDSVLFRRGTGQSDDSDIWDDTALIKAYDKAVASFKHALKNGDICETSGKPKTTPKRKPAKKNKSQKKNTAASLQQWKVGDKCSAIWSEDGCIYPATIASIDFKRETCVVVYTGYGNREEQNLSDLLSPICEVANNIEQNAQENENESQVSTDESENSRSPGNKSDNIKPKSAPWNSFLPPPPPMPGPRLGPGKIIPPPPPICPDSLDDADALGSMLISWYMSGYHTGYYMVFRQNQKEGRCSHSLN
chain 2: MAWVPAESAVEELMPRLLPVEPCDLTEGFDPSVPPRTPQEYLRRVQIEAAQCPDVVVAQIDPKKLKRKQSVNISLSGCQPAPEGYSPTLQWQQQQVAQFSTVRQNVNKHRSHWKSQQLDSNVTMPKSEDEEGWKKFCLGEKLCADGAVGPATNESPGIDYVQIGFPPLLSIVSRMNQATVTSVLEYLSNWFGERDFTPELGRWLYALLACLEKPLLPEAHSLIRQLARRCSEVRLLVDSKDDERVPALNLLICLVSRYFDQRDLADEPS
